T1: recombinant Q586B2 protein (Tb927.6.4140), produced in E. coli WK6
T1 chain: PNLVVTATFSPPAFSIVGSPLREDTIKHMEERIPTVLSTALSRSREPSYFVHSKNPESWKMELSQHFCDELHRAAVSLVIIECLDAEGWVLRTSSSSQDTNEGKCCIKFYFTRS

T2: native Q586B2 (Tb927.6.4140) of Trypanosoma brucei brucei parasites (Trypanosoma brucei brucei)
T2 construct: Native protein; also called native protein
T2 chain: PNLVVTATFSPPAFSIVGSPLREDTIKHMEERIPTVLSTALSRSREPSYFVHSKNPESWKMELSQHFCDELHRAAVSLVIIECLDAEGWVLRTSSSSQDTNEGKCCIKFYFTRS


Experiments:
[1] = target: T1, recombinant Q586B2 protein …; test: ELISA
[2] = target: T2, native Q586B2 (Tb927.6.4140) of …; test: flow cytometry on purified T. brucei brucei parasites, HA-tagged Nb, Alexa-488 anti-HA IgG
Experimental: FIG. 4A) Representative flow cytometric profile of purified, fixed and permeabilized T. brucei brucei parasites plotted in an SSC-A versus FSC-A plot and subsequently gating on single cells (FSC-H versus FSC-A plot). 10⁶ parasites in presence or absence of 5 μg of HA-tagged Nb was used per condition.

Binder	Kd [1]	binding result [2]
Nb53 (VHH) VHH: QVQLQESGGGSVQAGGSLRLSCSASGYTYSSHCTAWFRQAPGKEREALAAINSRSGTTYYADSVKGRFTISQDNTKNTAYLQMNSLKPEDTATYFCAALSFGCTGPLASLGQGTQVTVSS	45.5 nM	
Nb58 (VHH, Llama nanobody purified by IMAC and SEC; It was HA-tagged in flow cytometry; also called anti-Q586B2 Nb) VHH: QVQLQESGGGLVQPGGSLRLSCAASGRSISSIYAMGWYRQAPGKQRELVARLTSGGSSNYADSVKGRFTITRDNAQNTVYLQMNSLKPEDTAVYYCNAEPSRWWLDDDYWGQGTQVTVSS	36.7 nM	binds
Nb32 (VHH, Llama nanobody purified by IMAC and SEC; It was HA-tagged in flow cytometry; also called anti-Q586B2 Nb) VHH: QVQLQESGGGLVQPGGSLRLSCAASGFTFSAYAMSWVRQAPGKGLEWVSTIDSGGGSTYYADSVKGRFTISRDNAKKTLYLHMNSLKPEDTAVYYCAKRGYSDYARHVWGQGTQVTVSS	46.6 nM	binds
Nb34 (VHH) VHH: QVQLQESGGGLVQPGGSLRLSCAASGFTFSNSPMNWVRQAPGKGLEWVSAINSGGGSTYYADSVKGRFTISRDNAKNTLYLQMNSLKPEDTAVYYCAKGGRTYYSGSYYSWGMDYWGKGTQVTVSS	36.7 nM	
Nb36 (VHH) VHH: QVQLQESGGGLVQPGGSLRLSCAASGFAFSFYWMNWVRQAPGKGLEWVSAINSGGGSTYYADSVKGRFTISRDNAKNTLYLQMNSLKPEDTAVYYCAKGIVQRGEYYGMDYWGKGTQVTVSS	11.3 nM	
Nb41 (VHH, Llama nanobody purified by IMAC and SEC; It was HA-tagged in flow cytometry; also called anti-Q586B2 Nb) VHH: QVQLQESGGGLVQAGGSLRLSCAASGRTFSSYAMGWFRQAPGKEREFIALISWIGGSTAYADSVKGRFTISRDNAKNTLYLQMNSLKPEDTAVYYCATDRIGRHRGPGTQVTVSS	14.5 nM	binds
Nb39 (VHH) VHH: QVQLQESGGGLVQPGGSLRLSCTASGSIFSGYAMGWYRQAPGKQRELVAGITSGGSTIYAGSVKGRFTISRDNAKNTVYLQMNSLKPEDTAVYYCKNGTYYSARDYWGQGTQVTVSS	49.9 nM	
Nb27 (VHH) VHH: QVQLQESGGGLVQPGGSLRLSCTTSRSILSIYAMGWYRQAPGKQRELVAVITSGGSTYYADSVKGRFTISRDNAKNTLYLQMNSLKPEDTALYYCARGGYGTSPQPSWGQGTQVTVSS	52 nM	
